In doi:10.1101/2022.12.29.522231 (bioRxiv, 2022):

Columns and labels:
[1] = molecular target: catalytic domain of MMP-14 residues 110-300 (human, UniProt P50281 110-300); assay: enzyme inhibition assay
[2] = molecular target: catalytic domain of MMP-3 (WT), activated (UniProt P08254 100-272); assay: enzyme inhibition assay
catalytic domain of MMP-3 (WT), activated, sequence (P08254 100-272): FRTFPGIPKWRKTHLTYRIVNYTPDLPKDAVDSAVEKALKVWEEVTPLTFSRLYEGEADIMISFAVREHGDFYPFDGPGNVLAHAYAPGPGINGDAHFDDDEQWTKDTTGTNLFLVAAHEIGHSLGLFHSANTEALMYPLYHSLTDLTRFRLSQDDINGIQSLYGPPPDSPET

Ki [1]: 0.53 ± 0.1 nM
Ki [2]: 5.9 ± 0.7 nM
B1: WT N-TIMP2 (N-terminal domain of tissue inhibitor of metalloproteinases-2), purified (domain or fragment, human, UniProt P16035 27-153, looked up)
chain: CSCSPVHPQQAFCNADVVIRAKAVSEKEVDSGNDIYGNPIKRIQYEIKQIKMFKGPEKDIEFIYTAPSSAVCGVSLDVGGKKEYLIAGKAEGDGKMHITLCDFIVPWDTLSTTQKKSLNHRYQMGCE
